Assay results: patent publication US20160114035A1

How the values were obtained:
Assay in all cases: binding to purified HLA
Details in all cases: chains peptide; modification not given
DRB1*0401 = molecular target: DRB1*0401
DRB1*0101 = molecular target: DRB1*0101
DRB1*1101 = molecular target: DRB1*1101
DRB1*0701 = molecular target: DRB1*0701
DRB1*0404 = molecular target: DRB1*0404
DRB1*0802 = molecular target: DRB1*0802
DRB1*0405 = molecular target: DRB1*0405
DRB1*0901 = molecular target: DRB1*0901
DRB4*0101 = molecular target: DRB4*0101
DRB1*0301 = molecular target: DRB1*0301
DRB5*0101 = molecular target: DRB5*0101
DRB1*1302 = molecular target: DRB1*1302
DRB1*1501 = molecular target: DRB1*1501

- IC50 (DRB1*0401): 1.4 nM
- IC50 (DRB1*0101): 4 nM
- IC50 (DRB1*1101): 9.1 nM
- IC50 (DRB1*0701): 97 nM
- IC50 (DRB1*0404): 0.79 nM
- IC50 (DRB1*0802): 9.5 nM
- IC50 (DRB1*0405): 32 nM
- IC50 (DRB1*0901): 50 nM
- IC50 (DRB4*0101): 447 nM
- IC50 (DRB1*0301): 289 nM
- IC50 (DRB5*0101): 19 nM
- IC50 (DRB1*1302): 367 nM
- IC50 (DRB1*1501): 37 nM
Binder: AKFVAAWTLKAAA [SEQ ID NO: 3]
